Reference: the RNAGym collection of RNA variant scans (doi:10.1073/pnas.2313332121)
Variants at the floor of the assay were thinned out.

B1: TPR 5TU (parent)
chain: GGAUCUUCUCGAUCUAACAAAAAAGACAAAUCUGCCACAAAGCUUGAGAGCAUCUUCGGAUGCAGAGGCGGCAGCCUUCGGUGGCGCGAUAGCGCCAACGUUCUCAACUAUGACACGCAAAACGCGUGCUCCGUUGAAUGGAGUUUAUCAUG

Variants of: B1
Test: polymerase ribozyme fitness, log enrichment relative to wild type (log ratio); higher = more active; in vitro selection for triplet polymerase activity
Method in brief: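 Frozen incubation at −7 °C formed the core of a single, triplicate in vitro selection round applied to PCR-built, transcribed mutant libraries of each subunit of a heterodimeric triplet polymerase ribozyme. Extended constructs were gel-excised, captured with streptavidin beads and amplified by RT-PCR, and input and output libraries were Illumina-sequenced with a filter of ≥10 input reads and ≥1 read per output. Fitness is the logarithm of genotype enrichment relative to wild-type enrichment, with inverse-variance-weighted replicate averaging, and the logarithm is base 2.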

| Variant | polymerase ribozyme fitness (log ratio) |
| --- | --- |
| A17C C35U G86A A122G | -1.01 |
| A17G C125A | 0.215 |
| A17G A37U U82C C96A | -2.2 |
| A16U A49C G50A C54G C96A U101C U135G | ≤ -4.2 |
| C14U G140A | ≤ -4.2 |
| U15C A24C C93U G128U G140A U144C | ≤ -4.2 |
| A16G G128U | -3.4 |
| A17G A52U A64U G65A G86C A107C G128A | ≤ -4.2 |
| A17C G34U C51U C57A G86A | -4.06 |
| A17C G141U | 1.61 |
| U15G G25C C51A C96G C149G | ≤ -4.2 |
| A16U A26C C54A A119C G133C U135A | ≤ -4.2 |
| A16G C36G | -4.12 |
| U15G A17U | -0.367 |
| A16G A19U C93A | -3.75 |
| A16U U61A G74A C96G | ≤ -4.2 |
| A16C A24C G50C C85U G143U | ≤ -4.2 |
| A17G A19C G80C G92A C116U G136C G140A | ≤ -4.2 |
| A16G A26U C35A C51G U61A C87G A120U C129G | ≤ -4.2 |
| U15C A22C C51U G81U C85U G94A A122G | -1.17 |
| A16G G34C C35A C54A C93A | ≤ -4.2 |

| Variant | polymerase ribozyme fitness (log ratio) |
| --- | --- |
| A16G A17U A52C A91U C93U U111G C123U G124U G133A | ≤ -4.2 |
| A17C U45A C54G G74A A91C U139G | ≤ -4.2 |
| U15G A17G C27G A39G | ≤ -4.2 |
| A16G G46U U55A C85A C105A | -4.14 |
| U15A U31A G83U C103G U139A | ≤ -4.2 |
| U15G G50A U53A A73U C87A A113C G140U | ≤ -4.2 |
| A16C A66U A122C U139A A142U | ≤ -4.2 |
| U15G C27G C76U C87G | ≤ -4.2 |
| A17G A24U A37C A41U G84A U101C C105A U111G C118U | ≤ -4.2 |
| A16C C57A G94A C116U G124A A142U | -3.92 |
| A17C C27U C38A C85U | -0.305 |
| A16C C99G C125A | -2.16 |
| A16C C87U | -1.85 |
| A16G G83A | -0.814 |
| A17G A29U G42A C87U G100U A110C A115C A120G U134A | ≤ -4.2 |
| A17G A40C G48C | -1.5 |
| A17C C38U A41C A60C | -1.39 |
| U15G A73C G84U C96A C103G A110G A137C | ≤ -4.2 |
| A16C C27A A30U C38G G48U G86U A110U C116G G141A | -4.02 |
| U15A C27G A30U G68A A89U C95G A98U | ≤ -4.2 |
| U15A A29C C35A G59A C76U G143C | ≤ -4.2 |

| Variant | polymerase ribozyme fitness (log ratio) |
| --- | --- |
| A16U C54U | -1.53 |
| A16C C95U | -0.661 |
| A16C C35U G80A G94A C118U | -3.33 |
| U15G A24C G59C G68C C79G G81U C95A C132U | ≤ -4.2 |
| A17G C72A U77G C79U U109G | ≤ -4.2 |
| U15G U31G A40U C57A C95G C125U G140U | ≤ -4.2 |
| A17C A22U A37U A60G G71U U78A C93A U104G A122C | ≤ -4.2 |
| A17G A37U C51U | -2.83 |
| A16C C32G U56G C63G | ≤ -4.2 |
| A16C G83C U146G U148C C149A | ≤ -4.2 |
| A16G G86U | -2.72 |
| A17G C87A C103U | ≤ -4.2 |
| U15C A17G C35G U56A G117C | -4.19 |
| A16G A28U C87A A107C | ≤ -4.2 |
| A17C G58U G128A A138U | -4.13 |
| A17G C18G A64G C85A G100A A106U A119U | ≤ -4.2 |
| A17C A26U C75A G84A G141U | ≤ -4.2 |
| A17C A30C | -3.82 |
| A17G C32A A49C G83U A107G G143U | ≤ -4.2 |
| A16U C38A C85A | -3.78 |
| U15C A41G U61G C99U | -2.24 |

| Variant | polymerase ribozyme fitness (log ratio) |
| --- | --- |
| A17C C57U C93A U101G U144A | -2.86 |
| U15C U145G | 0.506 |
| A16G A26C C32U A47C U53A A91G C96G | ≤ -4.2 |
| U15C U56G A113U | -0.657 |
| A17C C76U C93G U102G C105A | ≤ -4.2 |
| A16C G81A | -0.894 |
| A16U U45C C123A | -2.97 |
| U15A G50A U109G A110G | ≤ -4.2 |
| C14U U31C C76U G84U A142G G143U U146G | ≤ -4.2 |
| A17C U55A G68A A73G C85U U127A G141U | ≤ -4.2 |
| A17C C32A U53A G67A G74C U101A | ≤ -4.2 |
| A17C G74U C85A A91G G92C C93G C118A A120C | ≤ -4.2 |
| A16C A19U | -1.03 |
| C14U U53G | -3.01 |
| U15A C43U U53G C76A U102G A119G G128U U135G A142U | ≤ -4.2 |
| A17C C18U C43U A97G U148A | ≤ -4.2 |
| A16C C85G | -4.13 |
| A16C C85U | -1.75 |
| A16G C32A C38G U56A A60C C87A C123U A150C | ≤ -4.2 |
| A16U G94A | -2.47 |
